The experiment has as its target 人可溶性BLyS (human soluble BLyS) (human) (UniProt Q9Y275). As to the kind of experiment: cell-based or functional assay.

The substance Benlysta (antibody) registered an IC50 of inhibition of the NF-κB signal downstream of human BLyS binding TACI (luciferase reporter gene assay) of 0.0517 µg/mL.

Values taken from CN115232208A.
